Consider 1 substance from publication PMC4482762.

This assay deals with endogenous 14-3-3ε (UniProt P62258). The assay can be described thus: GFP-Trap of YFP-R6, Western blot. As to conditions: reference: YFP-R6 wild type; sites S74. On the technique in general: A western blot detects proteins with antibodies after separation by electrophoresis.

For “PPP1R3D (R6) (from UniProt O95685) YFP-R6 S74A”, the “binding against the reference” value is given as “lost”.
